Source: the supplement of paper PMC10567573

B1: C8orf76 (parent)
chain: YCAKLCEPQWFYEETESSDDVEVL

Variants of: B1
Assay: protein stability index of a GFP-peptide fusion (GPS, HEK-293T) (PSI 1-6); higher = more stable
Conditions: c terminus: a fixed tail appended
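Also: lentivirally expressed fusions sorted by FACS into six bins by GFP to DsRed ratio, PSI derived from sequencing read proportions per bin multiplied by bin number.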

Protein stability index of substitutions, site by site:
F11: T 3.48; I 2.75; K 3.96; E 4.83; N 3.48; V 3.38; H 2.71; P 3.44; M 3.28; G 3.43; Q 3.57; W 2.63; D 4.38; A 3.01; R 2.89; C 3.41; L 3.56; S 3.54; Y 1.88
E16: H 3.15; P 1.65; N 1.89; S 1.74; I 2.14; M 2.31; T 2.22; C 1.58; W 1.65; Q 1.54; L 3.46; K 2.28; D 2.41; V 1.53; R 1.77; A 2.25; G 1.87; F 2.19; Y 2.59
E14: C 1.8; P 1.84; N 2.37; Q 1.72; Y 2.04; G 2.11; H 2.1; I 1.23; S 2.15; D 2.36; A 2.14; M 2.78; V 1.86; W 1.46; R 1.8; T 2.17; L 2.29; K 1.39; F 2.24
E13: G 1.26; M 2.13; Q 1.65; D 2.04; K 1.42; R 1.64; N 1.6; S 2.51; W 1.8; V 1.57; Y 1.55; P 1.92; A 2.11; T 2.1; L 2.12; F 2.16; I 2.1; H 1.91
Q9: I 2.22; T 2.29; N 2.17; A 2.46; R 1.41; D 3.86; W 1.04; C 1.93; G 2.15; E 3.13; L 2.14; V 1.74; Y 2.66; P 2.03; K 2.09; M 1.88; S 2.4; F 2.19; H 2.13
C6: A 2.95; R 2.21; V 3.3; F 2.41; D 2.93; W 1.77; N 2.36; G 1.52; H 2.32; E 3.63; I 2.88; K 2.93; S 2.18; P 2.86; Q 3.02; T 1.84; L 2.96; Y 2.29; M 2.79
V23: A 2.68; C 2.47; D 2.41; E 2.33
E22: D 1.98; W 2.28; F 1.6; K 2.21; R 2.14; H 2.06; L 1.38; M 1.49; V 1.36; Y 1.63; T 2.07; A 2.2; S 2.31; C 2.06; P 2.33; Q 2.61; I 2.03; N 2.14; G 2.31
D19: G 2.09; N 2.26; I 1.76; S 2.08; A 2.15; H 2.25; C 1.4; Y 1.76; W 1.41; Q 2.2; R 2; T 2.19; P 1.57; L 1.76; K 2.3; M 1.58; V 2.07; E 2.35; F 2.1
W10: I 3.45; H 3.52; F 3.22; G 4.02; D 4.5; P 3.92; S 4.48; N 4.07; R 4.74; E 3.98; A 4.04; Y 2.71; C 3.87; Q 4.45; V 3.35; M 3.51; K 4.15; T 4.34; L 3.04
D20: R 1.5; I 1.74; P 1.81; H 1.91; L 1.67; S 2.29; V 1.86; Q 1.86; K 2.01; N 2.05; T 2.18; Y 1.76; M 2.02; F 2.04; A 2.27; W 1.79; E 1.92; G 1.37; C 2.49
E7: A 2.27; F 2.33; C 2.69; Q 3.27; Y 2.2; W 1.63; V 2.3; I 2.32; P 2.46; G 2.43; S 2.82; D 3.69; T 2.5; L 2.83; M 2.49; K 2.78; H 2.57; N 2.67; R 2.6
P8: D 3.18; A 2.09; L 1.67; T 2.55; N 2.69; E 3.1; W 2.27; H 2.12; I 1.58; F 1.94; S 2.62; Y 1.76; Q 2.55; V 2.19; M 2.32; G 2.56; K 1.62; C 1.73; R 1.86
S17: M 2.14; W 2.74; C 1.68; P 2.34; Q 2.35; Y 2.24; D 3.15; V 2.25; L 1.98; N 2.4; A 2.38; G 3.01; T 2.42; R 2.25; K 2; H 1.87; I 1.83; E 2.85; F 1.87
Y12: K 2.39; L 2.14; E 3.35; I 1.97; F 2.43; T 1.82; V 2.16; G 2.62; D 3.63; A 2.28; W 1.8; C 1.98; S 2.52; H 2.44; N 2.62; R 2.76; Q 2.23; M 1.97; P 3.15
V21: L 2.07; K 2.99; Q 2.53; E 2.43; P 2.38; M 2.19; N 2.35; T 3.28; D 2.53; W 2.04; S 2.46; H 2.27; R 2.27; F 2.12; C 2.41; I 2.39; A 2.3; Y 2.48; G 2.56
S18: I 1.88; H 2.06; M 2.34; P 2.3; L 2.23; N 2.33; R 2; V 2.1; Y 2.29; Q 2.38; T 2.11; C 2.13; D 2.6; G 2.39; E 2.54; F 1.49; K 2.28; A 2.54
T15: W 1.81; A 2.63; L 1.75; M 1.91; R 2.9; I 1.91; D 2.9; C 2.16; H 2.12; P 2.84; Q 2.43; S 2.54; N 2.08; K 2.08; V 2.17; G 2.27; Y 1.96; F 2.02; E 2.72
L5: Y 3.33; V 2.4; S 2.04; W 1.28; N 3.31; T 2.78; P 2.15; Q 2.63; R 2.44
